Results taken from IntAct's records for PubMed 25910212.

B1: Polyunsaturated fatty acid 5-lipoxygenase (Homo sapiens), P09917 (parent)
chain: MPSYTVTVATGSQWFAGTDDYIYLSLVGSAGCSEKHLLDKPFYNDFERGAVDSYDVTVDEELGEIQLVRIEKRKYWLNDDWYLKYITLKTPHGDYIEFPCYRWITGDVEVVLRDGRAKLARDDQIHILKQHRRKELETRQKQYRWMEWNPGFPLSIDAKCHKDLPRDIQFDSEKGVDFVLNYSKAMENLFINRFMHMFQSSWNDFADFEKIFVKISNTISERVMNHWQEDLMFGYQFLNGCNPVLIRRCTELPEKLPVTTEMVECSLERQLSLEQEVQQGNIFIVDFELLDGIDANKTDPCTLQFLAAPICLLYKNLANKIVPIAIQLNQIPGDENPIFLPSDAKYDWLLAKIWVRSSDFHVHQTITHLLRTHLVSEVFGIAMYRQLPAVHPIFKLLVAHVRFTIAINTKAREQLICECGLFDKANATGGGGHVQMVQRAMKDLTYASLCFPEAIKARGMESKEDIPYYFYRDDGLLVWEAIRTFTAEVVDIYYEGDQVVEEDPELQDFVNDVYVYGMRGRKSSGFPKSVKSREQLSEYLTVVIFTASAQHAAVNFGQYDWCSWIPNAPPTMRAPPPTAKGVVTIEQIVDTLPDRGRSCWHLGAVWALSQFQENELFLGMYPEEHFIEKPVKEAMARFRKNLEAIVSVIAERNKKKQLPYYYLSPDRIPNSVAI
B2: Inactive peptidyl-prolyl cis-trans isomerase FKBP6 (Homo sapiens), O75344 (parent)
chain: MGGSALNQGVLEGDDAPGQSLYERLSQRMLDISGDRGVLKDVIREGAGDLVAPDASVLVKYSGYLEHMDRPFDSNYFRKTPRLMKLGEDITLWGMELGLLSMRRGELARFLFKPNYAYGTLGCPPLIPPNTTVLFEIELLDFLDCAESDKFCALSAEQQDQFPLQKVLKVAATEREFGNYLFRQNRFYDAKVRYKRALLLLRRRSAPPEEQHLVEAAKLPVLLNLSFTYLKLDRPTIALCYGEQALIIDQKNAKALFRCGQACLLLTEYQKARDFLVRAQKEQPFNHDINNELKKLASCYRDYVDKEKEMWHRMFAPCGDGSTAGES
partner: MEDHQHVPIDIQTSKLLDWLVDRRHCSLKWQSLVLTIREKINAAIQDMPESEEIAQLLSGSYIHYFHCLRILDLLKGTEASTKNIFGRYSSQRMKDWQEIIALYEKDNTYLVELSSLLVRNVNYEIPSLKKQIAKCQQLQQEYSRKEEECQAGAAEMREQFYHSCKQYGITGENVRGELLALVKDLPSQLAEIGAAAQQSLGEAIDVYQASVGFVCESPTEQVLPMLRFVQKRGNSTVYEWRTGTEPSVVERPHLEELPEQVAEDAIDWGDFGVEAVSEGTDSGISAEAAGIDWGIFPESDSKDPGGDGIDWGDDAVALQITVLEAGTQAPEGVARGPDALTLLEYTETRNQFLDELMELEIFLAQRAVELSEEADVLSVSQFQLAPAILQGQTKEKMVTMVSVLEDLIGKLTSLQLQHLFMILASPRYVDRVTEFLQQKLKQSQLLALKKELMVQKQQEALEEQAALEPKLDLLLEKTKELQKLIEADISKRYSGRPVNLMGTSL
B3: SH2 domain-containing protein 1A (Homo sapiens), O60880 (parent)
chain: MDAVAVYHGKISRETGEKLLLATGLDGSYLLRDSESVPGVYCLCVLYHGYIYTYRVSQTETGSWSAETAPGVHKRYFRKIKNLISAFQKPDQGIVIPLQYPVEKKSSARSTQGTTGIREDPDVCLKAP
partner: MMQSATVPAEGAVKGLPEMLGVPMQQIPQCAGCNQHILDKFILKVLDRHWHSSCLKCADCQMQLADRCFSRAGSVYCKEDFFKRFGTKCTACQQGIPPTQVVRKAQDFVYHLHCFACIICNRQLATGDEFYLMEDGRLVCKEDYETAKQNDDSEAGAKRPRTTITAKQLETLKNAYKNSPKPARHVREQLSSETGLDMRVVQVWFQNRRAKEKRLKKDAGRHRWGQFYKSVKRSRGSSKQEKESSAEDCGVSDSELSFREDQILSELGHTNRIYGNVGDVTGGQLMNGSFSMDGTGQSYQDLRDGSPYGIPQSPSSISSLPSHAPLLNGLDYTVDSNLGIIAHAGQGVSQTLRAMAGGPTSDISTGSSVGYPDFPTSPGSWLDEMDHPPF

Variants of: B1
Details: with md1l1_human MAD1L1, Q9Y6D9
md1l1_human MAD1L1, Q9Y6D9, sequence (Q9Y6D9 whole entry): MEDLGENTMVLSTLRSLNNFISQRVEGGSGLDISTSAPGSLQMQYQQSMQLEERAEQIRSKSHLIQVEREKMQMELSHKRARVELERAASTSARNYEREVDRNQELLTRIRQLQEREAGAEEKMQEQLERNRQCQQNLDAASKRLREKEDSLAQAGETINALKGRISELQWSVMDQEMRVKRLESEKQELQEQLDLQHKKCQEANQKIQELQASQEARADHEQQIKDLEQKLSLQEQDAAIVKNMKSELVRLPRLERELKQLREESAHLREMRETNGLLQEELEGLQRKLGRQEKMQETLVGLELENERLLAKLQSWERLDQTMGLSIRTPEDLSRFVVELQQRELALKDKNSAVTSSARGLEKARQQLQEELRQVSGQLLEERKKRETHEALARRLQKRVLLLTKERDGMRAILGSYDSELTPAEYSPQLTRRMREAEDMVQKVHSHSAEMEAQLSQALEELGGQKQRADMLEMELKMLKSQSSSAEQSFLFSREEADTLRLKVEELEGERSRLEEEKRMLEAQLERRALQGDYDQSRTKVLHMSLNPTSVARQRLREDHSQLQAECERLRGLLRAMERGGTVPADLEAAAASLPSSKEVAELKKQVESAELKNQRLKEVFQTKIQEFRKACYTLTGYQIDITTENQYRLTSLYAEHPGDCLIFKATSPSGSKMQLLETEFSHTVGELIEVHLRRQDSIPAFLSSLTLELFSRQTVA

Variant | effect of a mutation on the interaction
E254K | with no effect

Variants of: B1
Details: with hipl2_human HHIPL2, Q6UWX4
hipl2_human HHIPL2, Q6UWX4, sequence (Q6UWX4 whole entry): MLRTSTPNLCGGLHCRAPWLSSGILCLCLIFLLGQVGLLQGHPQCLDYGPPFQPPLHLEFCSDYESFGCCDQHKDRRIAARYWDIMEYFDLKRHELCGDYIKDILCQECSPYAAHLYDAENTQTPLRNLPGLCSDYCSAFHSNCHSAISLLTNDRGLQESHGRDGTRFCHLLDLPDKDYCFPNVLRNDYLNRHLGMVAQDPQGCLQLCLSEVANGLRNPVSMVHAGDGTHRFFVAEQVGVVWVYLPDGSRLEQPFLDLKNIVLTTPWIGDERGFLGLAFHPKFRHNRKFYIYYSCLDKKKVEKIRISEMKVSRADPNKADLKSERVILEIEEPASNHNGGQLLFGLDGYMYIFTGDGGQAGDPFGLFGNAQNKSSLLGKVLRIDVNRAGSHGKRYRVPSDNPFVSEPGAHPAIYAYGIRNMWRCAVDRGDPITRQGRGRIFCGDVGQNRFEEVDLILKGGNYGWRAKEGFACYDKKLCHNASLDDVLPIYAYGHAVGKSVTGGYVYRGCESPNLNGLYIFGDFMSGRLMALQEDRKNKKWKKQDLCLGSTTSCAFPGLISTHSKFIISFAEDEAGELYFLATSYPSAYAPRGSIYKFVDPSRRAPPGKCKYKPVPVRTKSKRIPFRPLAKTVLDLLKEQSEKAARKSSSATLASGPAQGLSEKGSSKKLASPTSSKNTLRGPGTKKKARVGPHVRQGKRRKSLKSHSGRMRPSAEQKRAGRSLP

Variant | effect of a mutation on the interaction
E254K | with no effect

Variants of: B1
Details: with syce1_human SYCE1, Q8N0S2
syce1_human SYCE1, Q8N0S2, sequence (Q8N0S2 whole entry): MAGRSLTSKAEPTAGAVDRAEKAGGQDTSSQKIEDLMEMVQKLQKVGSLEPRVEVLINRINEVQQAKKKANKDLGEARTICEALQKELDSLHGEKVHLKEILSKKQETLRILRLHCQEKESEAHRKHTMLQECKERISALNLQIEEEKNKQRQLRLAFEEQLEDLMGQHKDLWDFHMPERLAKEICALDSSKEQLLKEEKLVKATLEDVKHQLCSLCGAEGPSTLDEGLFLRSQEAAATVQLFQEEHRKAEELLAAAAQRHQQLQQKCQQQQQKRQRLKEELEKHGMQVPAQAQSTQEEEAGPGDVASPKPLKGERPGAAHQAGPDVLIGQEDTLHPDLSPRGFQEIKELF

Variant | effect of a mutation on the interaction
E254K | with no effect

Variants of: B2
Details: with ck5p3_human CDK5RAP3, Q96JB5

Variant | effect of a mutation on the interaction
MGGSALNQGVLEGDDAPGQSLYERLSQRMLDISGDRGVLKDVIREGAGDLVAPDASVLVKYSGYLEHMDRPLDSNYFRKTPRLMKLGEDITLWGMELGLLSMRRGELARFLFKPNYAYGTLGCPPLIPPNTTVLFEIELLDFLDCAESDKFCALSAEQQDQFPLQKVLKVAATEREFGNYLFRQNRFYDAKVRYKRALLLLRRRSAPPEEQHLVEAAKLPVLLNLSFTYLKLDRPTIALCYGEQALIIDQKNAKALFRCGQACLLLTEYQKARDFLVRAQKEQPFNHDINNELKKLASCYRDYVDKEKEMWHRMFAPCGDGSTAGES [F72L] | disrupting interaction strength
MGGSALNQGVLEGDDAPGQSLYERLSQRMLDISGDRGVLKDVIREGAGDLVAPDASVLVKYSGYLEHMDRPFDSNYFRKTPRLMKLGEDITLWGMELGLLSMRRGELARFLFKPNYAYGTLGCPPLIPPNTTVLFEIELLDFLDCAESDKFCALSAEQQDQFPLQKVLKVAATEREFGNYLFRQNRFYDAKVRYKRALLLLHRRSAPPEEQHLVEAAKLPVLLNLSFTYLKLDRPTIALCYGEQALIIDQKNAKALFRCGQACLLLTEYQKARDFLVRAQKEQPFNHDINNELKKLASCYRDYVDKEKEMWHRMFAPCGDGSTAGES [R202H] | with no effect

Variants of: B3
Details: with lhx4_human LHX4, Q969G2

Variant | effect of a mutation on the interaction
MDAVAVYHGKISRETGEKLLLATGLDGSYLLTDSESVPGVYCLCVLYHGYIYTYRVSQTETGSWSAETAPGVHKRYFRKIKNLISAFQKPDQGIVIPLQYPVEKKSSARSTQGTTGIREDPDVCLKAP [R32T] | with no effect
